The target of experiment [1] is myristoylated alanine-rich C-kinase substrate (MARCKS), endogenous, in conditioned medium of SCp2 cells (mouse) (UniProt P26645). In words: anti-Flag IP from conditioned medium, LC-MS/MS spectra counts; selection criterion that MARCKS passed.
The target of experiment [2] is annexin A2 (ANXA2), endogenous, in conditioned medium of SCp2 cells (mouse) (UniProt P07356). In words: anti-Flag IP from conditioned medium, LC-MS/MS spectra counts; selection criterion that ANXA2 passed.
Sequence of annexin A2 (ANXA2), endogenous, in conditioned medium of SCp2 cells (mouse) (P07356 2-339 limits assumed): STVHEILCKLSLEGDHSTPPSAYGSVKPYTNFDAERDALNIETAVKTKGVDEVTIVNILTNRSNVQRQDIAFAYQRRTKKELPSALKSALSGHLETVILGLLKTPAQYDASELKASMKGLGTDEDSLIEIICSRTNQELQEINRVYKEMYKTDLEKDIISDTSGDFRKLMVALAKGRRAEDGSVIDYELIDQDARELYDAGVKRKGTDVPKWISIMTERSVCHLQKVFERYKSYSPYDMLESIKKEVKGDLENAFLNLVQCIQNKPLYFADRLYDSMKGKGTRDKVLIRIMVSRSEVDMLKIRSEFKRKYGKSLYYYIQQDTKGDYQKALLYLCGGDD

Sequence of myristoylated alanine-rich C-kinase substrate (MARCKS), endogenous, in conditioned medium of SCp2 cells (mouse) (P26645 2-309 limits assumed): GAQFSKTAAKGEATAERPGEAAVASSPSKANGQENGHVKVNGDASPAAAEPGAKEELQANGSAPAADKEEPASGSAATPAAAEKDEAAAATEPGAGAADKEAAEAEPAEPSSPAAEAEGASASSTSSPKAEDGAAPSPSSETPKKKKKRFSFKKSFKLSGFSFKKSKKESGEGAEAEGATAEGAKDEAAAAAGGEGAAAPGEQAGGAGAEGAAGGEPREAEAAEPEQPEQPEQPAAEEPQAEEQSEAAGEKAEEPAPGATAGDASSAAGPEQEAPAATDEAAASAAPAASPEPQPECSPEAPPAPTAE

“Flag-tagged full-length human MMP3 (FL) (from UniProt P08254 18-477) (enzyme)”: the fold change of abundance (spectra counts) in FL compared with dPEX in experiment [1] and in experiment [2] was above 1.5 fold each time.

The record behind these values is patent publication US20150079071A1, “NON-CATALYTIC DOMAIN TARGETS IN MATRIX METALLOPROTEASE PROTEINS FOR CANCER THERAPIES” (THE REGENTS OF THE UNIVERSITY OF CALIFORNIA, priority 2012, published 2015).
